From patent US20090099029A1, “Methods and substrates for conducting assays” (Invitrogen Corporation, priority 2005, published 2009)

System: kinases of Table 6 on Myelin Basic Protein (MBP)
Test: Kinase assay using MBP substrate, ProQ Diamond stain (Table 6)
Type: biochemical
Conditions: kinase printed on MBP-coated slide; 20 uM ATP, 30° C.; ProQ Diamond Microarray Stain; graded Strong/Weak/Negative
Procedure: In this illustrative example, four-well slides were designed with a hydrophobic mask surrounding 4-wells of aldehyde- or epoxy-coated glass (smooth or ES grade; Erie Scientific (Portsmouth, N.H.)). […] Bovine, dephosphorylated, Myelin Basic Protein (MBP) was purchased from Upstate Biotechnology (#13-110). MBP was diluted to 1 mg/ml in PBS, applied to the slide surface, covered with a coverslip, and left overnight at 4° C. to coat the slide with the MBP. Slides were washed 3 times with water and spun dry before printing.
Kinases were purchased from Panvera (Invitrogen, Carlsbad, Calif.), diluted in printing buffer (50 mM Tris pH 7.5, 25% glyercol, 0.05% TritonX-100, 2 mM DTT) and deposited using a GeneMachine OmniGrid100. Slides were stored at −20° C.
Reactions were performed following removal of the slide from the freezer. Reaction buffer (20 mM HEPES pH 7.5, 4 mM MgCl2, 2 mM DTT, 20 uM ATP, 5% DMSO) was added with or without inhibitor, a coverslip applied, and the slide placed at 30° C. for the appropriate reaction time. The slide was washed with water to stop the reaction (3 times) and spun dry. ProQ Diamond Microarray Stain (Invitrogen #P33706) was applied, covered with a coverslip, and the slide was incubated in the dark at room temperature for 30 minutes. The slide was destained and washed three times with water, and spun dry.

B1: CHEK1 (protein)
chain: MAVPFVEDWDLVQTLGEGAYGEVQLAVNRVTEEAVAVKIVDMKRAVDCPENIKKEICINKMLNHENVVKFYGHRREGNIQYLFLEYCSGGELFDRIEPDIGMPEPDAQRFFHQLMAGVVYLHGIGITHRDIKPENLLLDERDNLKISDFGLATVFRYNNRERLLNKMCGTLPYVAPELLKRREFHAEPVDVWSCGIVLTAMLAGELPWDQPSDSCQEYSDWKEKKTYLNPWKKIDSAPLALLHKILVENPSARITIPDIKKDRWYNKPLKKGAKRPRVTSGGVSESPSGFSKHIQSNLDFSPVNSASSEENVKYSSSQPEPRTGLSLWDTSPSYIDKLVQGISFSQPTCPDHMLLNSQLLGTPGSSQNPWQRLVKRMTRFFTKLDADKSYQCLKETCEKLGYQWKKSCMNQVTISTTDRRNNKLIFKVNLLEMDDKILVDFRLSKGDGLEFKRHFLKIKGKLIDIVSSQKIWLPAT
modifications: left off: small tags and cut ends
  MBP Kinase Activity: Strong

B2: CSNK1D(CK1delta) (protein)
chain: MELRVGNRYRLGRKIGSGSFGDIYLGTDIAAGEEVAIKLECVKTKHPQLHIESKIYKMMQGGVGIPTIRWCGAEGDYNVMVMELLGPSLEDLFNFCSRKFSLKTVLLLADQMISRIEYIHSKNFIHRDVKPDNFLMGLGKKGNLVYIIDFGLAKKYRDARTHQHIPYRENKNLTGTARYASINTHLGIEQSRRDDLESLGYVLMYFNLGSLPWQGLKAATKRQKYERISEKKMSTPIEVLCKGYPSEFATYLNFCRSLRFDDKPDYSYLRQLFRNLFHRQGFSYDYVFDWNMLKFGASRAADDAERERRDREERLRHSRNPATRGLPSTASGRLRGTQEVAPPTPLTPTSHTANTSPRPVSGMERERKVSMRLHRGAPVNISSSDLTGRQDTSRMSTSQNSIPFEHHGK
modifications: left off: a dimerising Fc or GST
  MBP Kinase Activity: Negative

B3: EPHA1 (protein)
chain: RSRRAQRQRQQRQRDRATDVDREDKLWLKPYVDLQAYEDPAQGALDFTRELDPAWLMVDTVIGEGEFGEVYRGTLRLPSQDCKTVAIKTLKDTSPGGQWWNFLREATIMGQFSHPHILHLEGVVTKRKPIMIITEFMENGALDAFLREREDQLVPGQLVAMLQGIASGMNYLSNHNYVHRDLAARNILVNQNLCCKVSDFGLTRLLDDFDGTYETQGGKIPIRWTAPEAIAHRIFTTASDVWSFGIVMWEVLSFGDKPYGEMSNQEVMKSIEDGYRLPPPVDCPAPLYELMKNCWAYDRARRPHFQKLQAHLEQLLANPHSLRTIANFDPRMTLRLPSLSGSDGIPYRTVSEWLESIRMKRYILHFHSAGLDTMECVLELTAEDLTQMGITLPGHQKRILCSIQGFKD
modifications: left off: a dimerising Fc or GST
  MBP Kinase Activity: Strong

B4: CSNK2A2 (protein)
chain: MPGPAAGSRARVYAEVNSLRSREYWDYEAHVPSWGNQDDYQLVRKLGRGKYSEVFEAINITNNERVVVKILKPVKKKKIKREVKILENLRGGTNIIKLIDTVKDPVSKTPALVFEYINNTDFKQLYQILTDFDIRFYMYELLKALDYCHSKGIMHRDVKPHNVMIDHQQKKLRLIDWGLAEFYHPAQEYNVRVASRYFKGPELLVDYQMYDYSLDMWSLGCMLASMIFRREPFFHGQDNYDQLVRIAKVLGTEELYGYLKKYHIDLDPHFNDILGQHSRKRWENFIHSENRHLVSPEALDLLDKLLRYDHQQRLTAKEAMEHPYFYPVVKEQSQPCADNAVLSSGLTAAR
modifications: left off: a dimerising Fc or GST
  MBP Kinase Activity: Negative

B5: DAPK2 (protein)
chain: MFQASMRSPNMEPFKQQKVEDFYDIGEELGSGQFAIVKKCREKSTGLEYAAKFIKKRQSRASRRGVSREEIEREVSILRQVLHHNVITLHDVYENRTDVVLILELVSGGELFDFLAQKESLSEEEATSFIKQILDGVNYLHTKKIAHFDLKPENIMLLDKNIPIPHIKLIDFGLAHEIEDGVEFKNIFGTPEFVAPEIVNYEPLGLEADMWSIGVITYILLSGASPFLGDTKQETLANITAVSYDFDEEFFSQTSELAKDFIRKLLVKETRKRLTIQEALRHPWITPVDNQQAMVRRESVVNLENFRKQYVRRRWKLSFSIVSLCNHLTRSLMKKVHLRPDEDLRNCESDTEEDIARRKALHPRRRSSTS
modifications: left off: a dimerising Fc or GST
  MBP Kinase Activity: Negative

B6: DAPK3(ZIPK) (protein)
chain: MSTFRQEDVEDHYEMGEELGSGQFAIVRKCRQKGTGKEYAAKFIKKRRLSSSRRGVSREEIEREVNILREIRHPNIITLHDIFENKTDVVLILELVSGGELFDFLAEKESLTEDEATQFLKQILDGVHYLHSKRIAHFDLKPENIMLLDKNVPNPRIKLIDFGIAHKIEAGNEFKNIFGTPEFVAPEIVNYEPLGLEADMWSIGVITYILLSGASPFLGETKQETLTNISAVNYDFDEEYFSNTSELAKDFIRRLLVKDPKRRMTIAQSLEHSWIKAIRRRNVRGEDSGRKPERRRLKTTRLKEYTIKSHSSLPPNNSYADFERFSKVLEEAAAAEEGLRELQRSRRLCHEDVEALAAIYEEKEAWYREESDSLGQDLRRLRQELLKTEALKRQAQEEAKGALLGTSGLKRRFSRLENRYEALAKQVASEMRFVQDLVRALEQEKLQGVECGLR
modifications: left off: a dimerising Fc or GST
  MBP Kinase Activity: Negative

B7: DMPK (protein)
chain: MSAEVRLRRLQQLVLDPGFLGLEPLLDLLLGVHQELGASELAQDKYVADFLQWAEPIVVRLKEVRLQRDDFEILKVIGRGAFSEVAVVKMKQTGQVYAMKIMNKWDMLKRGEVSCFREERDVLVNGDRRWITQLHFAFQDENYLYLVMEYYVGGDLLTLLSKFGERIPAEMARFYLAEIVMAIDSVHRLGYVHRDIKPDNILLDRCGHIRLADFGSCLKLRADGTVRSLVAVGTPDYLSPEILQAVGGGPGTGSYGPECDWWALGVFAYEMFYGQTPFYADSTAETYGKIVHYKEHLSLPLVDEGVPEEARDFIQRLLCPPETRLGRGGAGDFRTHPFFFGLDWDGLRDSVPPFTPDFEGATDTCNFDLVEDGLTAMVSGGGETLSDIREGAPLGVHLPFVGYSYSCMALRDSEVPGPTPMELEAEQLLEPHVQAPSLEPSVSPQDETAEVAVPAAVPAAEAEAEVTLRELQEALEEEVLTRQSLSREMEAIRTDNQNFASQLREAEARNRDLEAHVRQLQERMELLQAEGATAVTGVPSPRATDPPSHLDGPPAVAVGQCPLVGPGPMHRRHLLLPARVPRPGLSEALSLLLFAVVLSRAAALGCIGLVAHAGQLTAVWRRPGAARAP
modifications: left off: a dimerising Fc or GST
  MBP Kinase Activity: Negative

B8: EPHA2 (protein)
chain: HRRRKNQRARQSPEDVYFSKSEQLKPLKTYVDPHTYEDPNQAVLKFTTEIHPSCVTRQKVIGAGEFGEVYKGMLKTSSGKKEVPVAIKTLKAGYTEKQRVDFLGEAGIMGQFSHHNIIRLEGVISKYKPMMIITEYMENGALDKFLREKDGEFSVLQLVGMLRGIAAGMKYLANMNYVHRDLAARNILVNSNLVCKVSDFGLSRVLEDDPEATYTTSGGKIPIRWTAPEAISYRKFTSASDVWSFGIVMWEVMTYGERPYWELSNHEVMKAINDGFRLPTPMDCPSAIYQLMMQCWQQERARRPKFADIVSILDKLIRAPDSLKTLADFDPRVSIRLPSTSGSEGVPFRTVSEWLESIKMQQYTEHFMAAGYTAIEKVVQMTNDDIKRIGVRLPGHQKRIAYSLLGLKDQVNTVGIPI
modifications: left off: a dimerising Fc or GST
  MBP Kinase Activity: Weak

B9: DYRK3 (protein)
chain: MGGTARGPGRKDAGPPGAGLPPQQRRLGDGVYDTFMMIDETKCPPCSNVLCNPSEPPPPRRLNMTTEQFTGDHTQHFLDGGEMKVEQLFQEFGNRKSNTIQSDGISDSEKCSPTVSQGKSSDCLNTVKSNSSSKAPKVVPLTPEQALKQYKHHLTAYEKLEIINYPEIYFVGPNAKKRHGVIGGPNNGGYDDADGAYIHVPRDHLAYRYEVLKIIGKGSFGQVARVYDHKLRQYVALKMVRNEKRFHRQAAEEIRILEHLKKQDKTGSMNVIHMLESFTFRNHVCMAFELLSIDLYELIKKNKFQGFSVQLVRKFAQSILQSLDALHKNKIIHCDLKPENILLKHHGRSSTKVIDFGSSCFEYQKLYTYIQSRFYRAPEIILGSRYSTPIDIWSFGCILAELLTGQPLFPGEDEGDQLACMMELLGMPPPKLLEQSKRAKYFINSKGIPRYCSVTTQADGRVVLVGGRSRRGKKRGPPGSKDWGTALKGCDDYLFIEFLKRCLHWDPSARLTPAQALRHPWISKSVPRPLTTIDKVSGKRVVNPASAFQGLGSKLPPVVGIANKLKANLMSETNGSIPLCSVLPKLIS
modifications: left off: a dimerising Fc or GST
  MBP Kinase Activity: Negative

B10: GRK4 (protein)
chain: MELENIVANSLLLKARQGGYGKKSGRSKKWKEILTLPPVSQCSELRHSIEKDYSSLCDKQPIGRRLFRQFCDTKPTLKRHIEFLDAVAEYEVADDEDRSDCGLSILDRFFNDKLAAPLPEIPPDVVTECRLGLKEENPSKKAFEECTRVAHNYLRGEPFEEYQESSYFSQFLQWKWLERQPVTKNTFRHYRVLGKGGFGEVCACQVRATGKMYACKKLQKKRIKKRKGEAMALNEKRILEKVQSRFVVSLAYAYETKDALCLVLTIMNGGDLKFHIYNLGNPGFDEQRAVFYAAELCCGLEDLQRERIVYRDLKPENILLDDRGHIRISDLGLATEIPEGQRVRGRVGTVGYMAPEVVNNEKYTFSPDWWGLGCLIYEMIQGHSPFKKYKEKVKWEEVDQRIKNDTEEYSEKFSEDAKSICRMLLTKNPSKRLGCRGEGAAGVKQHPVFKDINFRRLEANMLEPPFCPDPHAVYCKDVLDIEQFSVVKGIYLDTADEDFYARFATGCVSIPWQNEMIESGCFKDINKSESEEALPLDLDKNIHTPVSRPNRGFFYRLFRRGGCLTMVPSEKEVEPKQC
modifications: left off: a dimerising Fc or GST
  MBP Kinase Activity: Negative
